One molecule from patent US8076087B2, “Galectin sequences and compositions and methods utilizing same for treating or diagnosing arthritis and other chronic inflammatory diseases” (Medical Research Fund of Tel Aviv Souraskv Medical Center, priority 2002, dated 2011) can be followed below.

Assay [1] relates to IL-1β. The experiment in a line: IL-1β levels in media of LPS-supplemented human synovial tissue / cell cultures, sandwich enzyme immunoassay. It counts as cell-based. The note with it: LPS 3 μg/ml, 50-2000 ng/ml, 48 hours. As for the experimental part: (§1) Specimen Selection and Culture Conditions: Synovial tissues were obtained from patients undergoing total knee or hip replacement for osteoarthritis (OA). Within 2 hours of removal, synovial tissues were cut into small pieces, of a few millimeters in diameter. Synovial fibroblasts were cultured in 2 ml RPMI 1640 supplemented with 2 mM L-glutamine, 100 U/ml penicillin and 100 μg/ml streptomycin sulphate (Biological Industries).
(§2) Inflammatory cells and PBLs derived from joints of rheumatoid arthritic (RA) patients were cultured individually [RPMI-1640 (Sigma, Israel)]. The murine fibroblast line, NIH 3T3, was used as a control. The recombinant galectin-8 peptide (r-galectin-8) was added to the culture medium of the synovial fibroblasts at a concentration of 0.125 μM, 0.25 μM, 0.5 μM and 1 μM) together with lipopolysaccharide (LPS, 3 μg/ml). The recombinant galectin-8 peptide variants (r-galectin-8 variant 1 and r-galectin-8 variant 2) were added to all the culture mediums in the following concentrations: 50 ng/ml, 125 ng/ml, 250 ng/ml, 500 ng/ml, 750 ng/ml, 1 μg/ml and 2 μg/ml together with lipopolysaccharide (LPS, 3 μg/ml). Following 48 hours of incubation (37° C., 5% CO2), the measurement of IL-1β, TNF-α and IL-1ra production was performed in supernatants by quantitative sandwich enzyme immunoassay technique (R&D Systems, Inc., USA). Detection limits were 1 pg/ml to 14 pg/ml. IL-1ra production was tested with and without the addition of lipopolysaccharide (LPS, 3 μg/ml) to the culture media.

Assay [2] concerns IL-1ra. The experiment in a line: IL-1ra levels in media of LPS-supplemented human synovial tissue / cell cultures, sandwich enzyme immunoassay. Type of assay: cell-based. The note with it: LPS 3 μg/ml, 50-2000 ng/ml, 48 hours. Here is the method:
as §1, §2

Assay [3] has as its system IL-1β. The experiment in a line: IL-1β levels in media of NIH 3T3 fibroblasts (negative control cells). Type of assay: cell-based, murine. The following applies: LPS 3 μg/ml, 50-2000 ng/ml, 48 hours. As for the experimental part: as §2
The subject of assay [4] is IL-1ra. The experiment in a line: IL-1ra levels in media of NIH 3T3 fibroblasts (negative control cells). It counts as cell-based, murine. The note with it: LPS 3 μg/ml, 50-2000 ng/ml, 48 hours. As for the experimental part: as §2
Assay [5] deals with PBLs of arthritic patients. The experiment in a line: Apoptosis induction, annexin V/PI flow cytometry, PBLs. Type of assay: cell-based, human. The note with it: lowest concentration 50 ng/ml. As for the experimental part:
The assay was performed by Phosphatidyl Serine Detection Kit (IOP-116F FITC-conjugated, IQ Products, The Netherlands) using the manufacturer instructions. Human fibroblast cells from OA patients, synovial fluid cells and PBLs from RA and other arthritic patients were incubated with increasing concentrations of galectin-8 variants 1 and 2 (50-2000 ng/ml). Specific binding of annexin V was performed by the incubation of cells for 20 minutes on ice in a binding calcium buffer containing a saturating concentration of annexin V-fluorescein isothiocyanate (FITC) and propdium iodide (PI). After incubation, the cells were pelleted, and analyzed in FACS analyzer (Beckton Dickinson, San Jose, Calif.). Annexin V^+/PI^+ cells were defined as necrotic, while annexin V^+/PI^− cells were defined as apoptotic. The percent of the apoptotic cells of the total cells was determined.

Assay [6] deals with collagen induced arthritis (CIA). The experiment in a line: Collagen-induced arthritis (CIA) in DBA/1 mice, footpad thickness. It counts as in vivo. The following applies: 100 μg per injection. The source says:
Animal treatment: 44 DBA/1 mice were induced with a joint inflammatory disease by two subcutaneous (s.c.) injections into the base of the tail of type II collagen three weeks apart. Joint inflammation, which appears several days after the last collagen injection, causes enhanced marked foot pad swelling, as well as swelling of other joints. The diameter of nonarthritic footpads is 1.5 to 1.7 mm. A footpad diameter of 1.9 to 2.0 mm was arbitrarily set as disease onset. […] Human galectin-8 protein and variants (100 μg per injection) as well as control injections were injected IP at disease onset and then every day for 11 days. The 44 mice were divided into 5 experimental groups as follows: Group 1 (negative control): systemic injection (starting at CIA onset) of PBS or PBS+30% glycerol (storing dilution solution of galectin proteins) (10 mice). Group 2 (positive control): systemic injection (starting at CIA onset) of anti-mouse TNFα mAb (cat. no. AMC-3012, Biosource Int. Inc. USA) adhering to the standard protocol (i.e., 100 μg antibody/mouse every day for 11 days) (6 mice). Group 3 (positive control): systemic injection of human galectin-8 protein according to the standard protocol (10 mice). Group 4: systemic injection of 100 μg per dose of human galectin-8 variant 1 according to the standard protocol (10 mice). Group 5: systemic injection of 100 μg per dose of human galectin-8 variant 2 (8 mice). The effect on footpad thickness was determined in a “blind” fashion, recording the electronic microcaliper measurements of the thickness of the joints, by picking the animals at random and recording their ears' signs following measurement. The mice were bled prior to disease induction, following disease onset and upon termination of the experiment (approximately day 11). The sera were stored and later analyzed for the presence of rheumatoid factor (RF) and cytokines. The mice were killed upon termination of the experiment and the joints removed from some of the animals for histopathological examination.

[7] abbreviates: human fibroblasts from OA patients.
[8] abbreviates: human fibroblasts from OA patients, listed as galectin-8 var. 1.
Setting [9] is: synovial fluid cells (SFCs), listed as galectin-8 var. 1.

B1: galectin-8 variant 1: recombinant galectin-8 variant 1 polypeptide, SEQ ID NO: 6, isoform found in synovial fluid cells of arthritic patients (protein)
chain: MMLSLNNLQNIIYNPDLQSTQASSLELTEISRENVPKSGTPQLPSNRGGDISKIAPRTVYTKSKEARQSHFDLHENTTYELCVKSLPFAARLNTPMGPGRTVVVKGEVNANAKSFNVDLLAGKSKDIALHLNPRLNIKAFVRNSFLQESWGEEERNITSFPFSPGMYFEMIIYCDVREFKVAVNGVHSLEYKHRFKELSSIDTLEINGDIHLLEVRSW
Take B1: the “IL-1β levels in media” value is “significantly and dose-dependently inhibited” in the assay on IL-1β [1] (PBLs from RA patients); “decrease” in the assay with IL-1β [1] (PBLs from RA patients, listed as galectin-8 var. 1); “significantly and dose-dependently inhibited” in the assay on IL-1β [1] (setting [7]); “decrease” in the assay on IL-1β [1] (setting [8]); “significantly and dose-dependently inhibited” in the assay with IL-1β [1] (synovial fluid cells (SFCs)); “decrease” in the assay with IL-1β [1] (setting [9]). The “IL-1β levels in media” value is reported as “No effect” in the assay on IL-1β [3] and “remain unaffected” with IL-1β [3] (listed as galectin-8 var. 1). Further, the “IL-1ra levels in media” value with IL-1ra [2] (PBLs of RA patients) was “significantly and dose-dependently increased”; in the assay on IL-1ra [2] (PBLs of RA patients, listed as galectin-8 var. 1) it was “decrease”; in the assay with IL-1ra [2] (setting [7]) it was “significantly and dose-dependently increased”; in the assay with IL-1ra [2] (setting [8]), “decrease”; with IL-1ra [2] (synovial fluid cells (SFCs)) it was “significantly and dose-dependently increased”; in the assay with IL-1ra [2] (setting [9]) it was “decrease”. The “IL-1ra levels in media” value is “No effect” in the assay with IL-1ra [4] and “remain unaffected” in the assay with IL-1ra [4] (listed as galectin-8 var. 1). The maximal apoptotic effect entry in assay [5] was “approximately 100%”. Besides, in assay [6] (IP / systemic, from disease onset every day for 11 days), the “CIA manifestations (footpad swelling)” value is “substantially reduced”. Moreover, the “alleviating the swelling in the footpad, compared with positive controls” value in assay [6] (every day for 11 days) was “at least as effective as anti-TNFα mAb and the human galectin-8 recombinant peptide”.
